{
  "source": "patent US20140255414A1",
  "about": "(PROBIODRUG, published 2014)",
  "binders": {"B1": {"name": "monoclonal mouse anti Aβ11(pE) antibody Aβ 13-11-6 (clone 13), Deposit No. DSM ACC 3100 (antibody, V domains shown)", "VH": "QVQLQQPGTELVKPGASVKLSCKASGFTFTSYWMHWVRQRPGQGLEWIGEINPSNGRTNYNEKFKSKATLTVDKSSSTAYMQLSSLTSEDSEVYYCARGDLAWDWSAYWGQGTLVTVSA", "VL": "DIVMSQSPSSLAVSAGEKVTMSCKSSQSLFYSRTRKNYLAWYQQKPGQSPKLLIYWASTRESGVPDRFTGSGSGTDFTLTISSVQAEDLAVYYCKQSYNLWSFGGGTKLEIKR", "notes": "The KSCN-eluted and glycine-HCl-eluted preparations are the same molecule; also called pEVHH-59025 13-11-6; mAb mouse anti Aβ11(pE)"}},
  "key": {"Aβ(pE11-18)-PEG peptide [1]": {"target": "T1, Aβ(pE11-18)-PEG peptide (reading uncertain)", "T1 construct": "The PEG attachment is not described further", "T1 peptide": "[pGlu]VHHQKLV-{PEG}", "assay": "ITC at 20 °C, peptide titrated into antibody eluted with KSCN gradient", "description": "The measurement of heat of reaction was performed at 20° C. Furthermore the heat of reaction was determined which was only generated by dilution of the antigen through the titration into ITC buffer (pH=7.1). Therefore the antigen was injected into the sample cell filled with ITC buffer. The heat of reaction which was generated during the titration of the antigen to the antibody was corrected about this value. The analysis of raw data and the determination of the association constant (KA), reaction stoichiometry (n), binding enthalpy (ΔH) and entropy (ΔS) was performed with Origin Software of MicroCal.\nTo characterize the binding of anti Aβ11(pE) antibody at the Aβ(pE11-18)-PEG peptide the method of Isothermal Titration calorimetry (ITC) was used (see section 1.3.4). The antibody which was eluted from protein G column with KSCN-gradient (pH 7.0) and 0.1 M glycine-HCl (pH 2.7) was analyzed. With ITC the reaction stoichiometry (N), association constant (KA), binding enthalpy (ΔH) as well as the entropy (ΔS) were determined. The peptide was titrated to anti Aβ11(pE) antibody in the ITC MicroCalorimeter as described in section 1.3.4.2. […] The reaction partners interact and heat is released or absorbed in direct proportion to the amount of binding events. Each injection of antigen leads to change of temperature. To compensate the temperature difference between the sample and reference cell the addition or removal of heat to the sample cell occurs and serves as measurement signal.\nAt first the heat of the Aβ(pE11-18)-PEG dilution in ITC buffer was determined (see FIG. 16, upper trace). […] Afterwards the peptide Aβ(pE11-18)-PEG was titrated to anti Aβ11(pE) antibody in the sample cell (see FIG. 16, lower trace). The total heat release after each injection was determined by integration of the area between each peak and baseline. Then the heat of dilution (see FIG. 16, upper trace) was subtracted from the total heat release of each injection."}, "AβpE(3-40) peptide": {"target": "T2, AβpE(3-40) peptide (N-terminal pyroglutamate (Aβ position 3))", "T2 construct": "Immobilized on a CM5 chip at 1830 RU; also called Aβ3(pE); Aβ N3pE-40", "T2 sequence (peptide, as listed by the source)": "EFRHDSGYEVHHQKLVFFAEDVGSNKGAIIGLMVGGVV", "assay": "SPR, 1 µg/ml antibody over immobilized AβpE(3-40) against immobilized AβpE(11-30)"}, "Aβ(pE11-18)-PEG peptide [2]": {"target": "T1, Aβ(pE11-18)-PEG peptide", "assay": "ITC at 20 °C, peptide titrated into antibody eluted with 0.1 M glycine-HCl pH 2.7 (KD=1/KA)", "description": "For the ITC experiment, the peptide Aβ(pE11-18)-PEG was used because the hydrophilic PEG group imparts hydrophilic properties and so it was possible to dissolve the peptide directly in ITC buffer. Former experiments with Aβ(pE11-20) could only be performed with 1-2% DMSO, due to the strong hydrophobicity of the peptide it was necessary to dissolve it with DMSO which could have an effect on the ITC binding properties. At first the antibody was dialyzed against ITC buffer (150 mM NaCl, 25 mM Na₂HPO₄, 25 mM KH₂PO₄, 1 mM EDTA, pH=7.1) over night at 4° C. The lyophilised peptide, stored at −20° C., was dissolved in identical ITC buffer pH=7.1 which was used for antibody dialysis. Both antibody and antigen must be in identical solutions, otherwise large heats of dilution will mask the desired observation. Before the ITC experiment, the concentration of antibody was determined by UV/VIS spectroscopy (see section 1.3.1). […] Furthermore the heat of reaction was determined which was only generated by dilution of the antigen through the titration into ITC buffer (pH=7.1). […]\nTo characterize the binding of anti Aβ11(pE) antibody at the Aβ(pE11-18)-PEG peptide the method of Isothermal Titration calorimetry (ITC) was used (see section 1.3.4). The antibody which was eluted from protein G column with KSCN-gradient (pH 7.0) and 0.1 M glycine-HCl (pH 2.7) was analyzed."}, "Aβ(pE11-20)-biotin": {"target": "T3, Aβ(pE11-20)-biotin", "T3 construct": "Immobilized on streptavidin-coated microplates in the auto-Ig-ELISA", "T3 peptide": "[pGlu]VHHQKLVFF-biotin", "assay": "ELISA: 200 ng/ml Aβ(pE11-20)-biotin on streptavidin plate, antibody 55-3500 pg/ml, detection with rabbit anti-mouse Ig's HRP, absorption 450/540 nm", "description": "Immobilization of 200 ng/ml Aβ(pE11-20)-biotin at streptavidin coated microplate (2 h, at RT). Blocking with 200 μl ELISA-Blocker (−T) 1 h at RT and followed by wash cycle (3×300 μl/well wash buffer). Standard anti Aβ11(pE) antibody (clone 13) was diluted in ELISA-Blocker (+T) in radix division from 3500 pg/ml down to 55 pg/ml and incubated 2 h at 4° C. A wash cycle followed and detection with polyclonal rabbit anti-mouse Ig's HRP 1 h at 4° C. After wash cycle TMB/H₂O₂ were added, incubated 30 min at RT (dark) and enzyme reaction was stopped with 1 M H₂SO₄. Absorption was measured at 450/540 nm at TECAN Sunrise."}},
  "note": "Square brackets hold non-standard residues; d marks the D form. pGlu = O=C1CC[C@@H](C(=O)O)N1; PEG = not defined here",
  "data": [
    {"binder": "B1", "values": [
      {"measurement": "-TΔS", "setting": "Aβ(pE11-18)-PEG peptide [1]", "result": -1.27, "unit": "kcal/mol"},
      {"measurement": "Ka", "setting": "Aβ(pE11-18)-PEG peptide [1]", "result": "1.27e+07", "unit": "M⁻¹"},
      {"measurement": "Stoichiometry (N)", "setting": "Aβ(pE11-18)-PEG peptide [1]", "result": 1.88},
      {"measurement": "cross reactivity relative to AβpE(11-30)", "setting": "AβpE(3-40) peptide", "result": 4, "unit": "magnitudes lower"},
      {"measurement": "Kd", "setting": "Aβ(pE11-18)-PEG peptide [2]", "result": 105, "unit": "nM"},
      {"measurement": "binding result", "setting": "Aβ(pE11-20)-biotin", "result": "binds"}
    ]}
  ]
}
